From publication PMC11758377 (2026)

Target: H3K4me3 peptide (Homo sapiens, UniProt P68431)
Experiment: MST

Kd: 2.9 µM
B1: BPTF-PHD PHD (protein)
chain: KLYCICKTPYDESKFYIGCDRCQNWYHGRCVGILQSEAELIDEYVCPQCQST
